Data: US20080267971A1 (published 2008)

Key:
Assay in all cases: ELISA
human Ang-2443 = molecular target: T1, human Ang-2443 (human, UniProt O15123 19-496)
T1 construct: Splice variant missing amino acids 96-148; supernatant of transfected 293F cells
T1 sequence: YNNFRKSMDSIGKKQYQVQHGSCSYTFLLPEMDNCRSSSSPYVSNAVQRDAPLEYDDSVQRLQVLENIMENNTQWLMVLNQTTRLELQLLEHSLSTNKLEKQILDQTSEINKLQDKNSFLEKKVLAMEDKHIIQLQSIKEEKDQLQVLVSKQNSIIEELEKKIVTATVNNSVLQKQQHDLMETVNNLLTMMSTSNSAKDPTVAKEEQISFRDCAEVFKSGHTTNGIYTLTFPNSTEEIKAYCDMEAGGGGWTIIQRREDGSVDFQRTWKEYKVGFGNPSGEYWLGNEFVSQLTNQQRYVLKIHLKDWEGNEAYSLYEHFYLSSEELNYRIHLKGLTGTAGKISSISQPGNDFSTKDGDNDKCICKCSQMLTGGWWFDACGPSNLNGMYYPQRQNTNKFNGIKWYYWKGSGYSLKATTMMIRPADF

human Ang-2 V345M = molecular target: T2, human Ang-2 V345M (human, UniProt O15123 19-496)
T2 sequence: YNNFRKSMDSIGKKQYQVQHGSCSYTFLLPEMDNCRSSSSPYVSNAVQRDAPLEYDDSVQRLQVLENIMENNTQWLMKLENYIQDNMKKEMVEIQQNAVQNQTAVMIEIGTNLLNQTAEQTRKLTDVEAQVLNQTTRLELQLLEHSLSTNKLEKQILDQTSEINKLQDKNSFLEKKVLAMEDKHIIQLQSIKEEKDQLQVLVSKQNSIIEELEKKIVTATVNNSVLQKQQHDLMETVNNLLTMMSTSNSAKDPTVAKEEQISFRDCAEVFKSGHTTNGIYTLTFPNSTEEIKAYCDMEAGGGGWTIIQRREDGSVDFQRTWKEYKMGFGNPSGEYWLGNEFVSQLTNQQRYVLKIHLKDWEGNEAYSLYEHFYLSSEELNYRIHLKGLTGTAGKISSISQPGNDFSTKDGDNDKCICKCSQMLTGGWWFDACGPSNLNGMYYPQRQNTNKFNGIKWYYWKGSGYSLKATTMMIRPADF

[1] = molecular target: T3, Mouse/Human chimeric Ang-2 with the human StuI-TfiI fragment (mouse/human chimera, UniProt O35608 19-496)
T3 construct: also called Stu-Tfil 310-400
T3 chain: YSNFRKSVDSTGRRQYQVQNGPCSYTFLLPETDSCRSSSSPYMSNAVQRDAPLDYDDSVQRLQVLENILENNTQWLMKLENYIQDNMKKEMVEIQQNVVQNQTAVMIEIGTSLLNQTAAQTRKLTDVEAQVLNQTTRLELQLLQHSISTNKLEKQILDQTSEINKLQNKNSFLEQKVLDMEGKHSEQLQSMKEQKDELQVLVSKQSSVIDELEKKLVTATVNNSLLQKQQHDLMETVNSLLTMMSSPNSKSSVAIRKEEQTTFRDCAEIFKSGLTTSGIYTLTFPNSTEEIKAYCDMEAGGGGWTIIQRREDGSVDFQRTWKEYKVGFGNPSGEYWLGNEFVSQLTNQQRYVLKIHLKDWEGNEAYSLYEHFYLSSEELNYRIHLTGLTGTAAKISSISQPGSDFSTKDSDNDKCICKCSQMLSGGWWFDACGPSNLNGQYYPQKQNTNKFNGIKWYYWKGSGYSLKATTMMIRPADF

[2] = molecular target: T4, Human Ang-1/2 BsmI chimeric molecule (human)
T4 chain: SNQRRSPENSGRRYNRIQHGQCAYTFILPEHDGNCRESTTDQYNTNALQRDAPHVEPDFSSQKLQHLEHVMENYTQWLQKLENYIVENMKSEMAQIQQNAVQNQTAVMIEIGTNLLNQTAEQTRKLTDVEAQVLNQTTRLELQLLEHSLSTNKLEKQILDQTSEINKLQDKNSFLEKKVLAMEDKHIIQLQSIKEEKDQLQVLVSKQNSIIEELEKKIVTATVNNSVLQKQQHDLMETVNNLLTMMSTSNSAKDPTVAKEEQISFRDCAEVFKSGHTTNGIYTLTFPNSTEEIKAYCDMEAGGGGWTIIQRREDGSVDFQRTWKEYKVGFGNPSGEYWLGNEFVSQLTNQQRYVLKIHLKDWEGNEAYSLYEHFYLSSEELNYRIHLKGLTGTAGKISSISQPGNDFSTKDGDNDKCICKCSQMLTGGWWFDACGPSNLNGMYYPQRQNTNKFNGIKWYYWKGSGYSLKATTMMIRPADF

human Ang-2 H375Q = molecular target: T5, human Ang-2 H375Q (human, UniProt O15123 19-496)
T5 sequence: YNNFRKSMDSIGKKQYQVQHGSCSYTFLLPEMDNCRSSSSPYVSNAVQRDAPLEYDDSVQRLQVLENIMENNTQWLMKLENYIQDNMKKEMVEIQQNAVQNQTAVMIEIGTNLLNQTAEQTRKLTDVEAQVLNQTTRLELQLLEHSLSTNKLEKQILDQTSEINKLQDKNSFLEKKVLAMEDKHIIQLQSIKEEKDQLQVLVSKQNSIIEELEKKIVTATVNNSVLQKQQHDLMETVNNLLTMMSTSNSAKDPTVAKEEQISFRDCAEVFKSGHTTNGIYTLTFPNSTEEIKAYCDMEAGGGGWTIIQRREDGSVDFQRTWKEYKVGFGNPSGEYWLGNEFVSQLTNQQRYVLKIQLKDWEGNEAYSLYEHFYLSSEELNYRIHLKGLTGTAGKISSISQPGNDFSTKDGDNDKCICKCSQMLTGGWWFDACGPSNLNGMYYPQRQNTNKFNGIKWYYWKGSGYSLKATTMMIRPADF

Measured: % of binding to human Ang-2

B1: mAb 5.108.1 (antibody, V domains shown)
VH: QVQLVESGGGVVQPGRSLRLSCAASGFTFSSYGMHWVRQAPGKGLEWVAVIWYDGSNKYYADSVKGRFTISRDNSKNTLYLQMNSLRAEDTAMYYCARELALWGQGTLVTVSS
VL: EIVMTQSPATLSVSPGERATLSCRASQSVSSYLAWYQQKPGQAPRLLIYGAFTRATGIPARFRGSGSGPEFTLTISSLQSEDFAVYYCQQYSHWWTFGQGTKVEIKR
notes: Human hybridoma IgG (XenoMouse); also called x5.108
36%: [1]
100%: all other assays above

B2: mAb 5.39.1 (antibody, V domains shown)
VH: QVQLVQSGAEVTKPGASVKVSCKASGYTFTAYHMYWVRQAPGQGLEWMGWINPNSGGTNYAQKFQGRVTMTRDTSISTAYMELSRLRSDDSPVYYCARDQGIAAAGPFDYWGQGTLVTVSS
VL: EIVMTQSPATLSVSPGDRATLSCRASQSVSSNFAWYQQKPGQAPRLLIYGSSTRATGIPARFSGSGSGTEFTLTISSLQSEDFAVYYCQQYHYWWTFGQGTKVEFKR
notes: Human hybridoma IgG (XenoMouse); also called x5.39
25%: [1]
100%: all other assays above

B3: mAb 5.40.2 (antibody, V domains shown)
VH: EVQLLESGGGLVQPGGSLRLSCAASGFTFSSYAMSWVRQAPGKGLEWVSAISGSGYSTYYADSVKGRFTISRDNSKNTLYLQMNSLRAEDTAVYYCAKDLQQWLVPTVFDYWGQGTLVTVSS
VL: EIVMTQSPATLSVSPGERATLSCRASQSVSSNLVWYQQKPGQAPRLLIYDSSTRATGIPVRFSGSGSGTEFTLTISSLQSEDFAVYYCQQYNHWWTFGQGTKVEIKR
notes: Human hybridoma IgG (XenoMouse); also called x5.40
65%: [1]
100%: all other assays above

B4: mAb 5.35.1 (antibody, V domains shown)
VH: EVQLVESGGGVVRPGGSLRLSCTTSGFTFDDYGMSWVRQAPGKGLEWVSGINWNGGSTVYADSVKGRFTISRDSAKNSLYLQMNSLRAEDTALYHCARNKQWLWYFDLWGRGTLVTVSS
VL: EIVMTQSPATLSVSPGERATLSCRASQSVSSNLAWYQQKPGQAPRLLIYGASTRATGIPARFSGSGSGTEFTLTISSLQSEDFAVYYCEQYNNWPLTFGGGTKVEIKR
notes: Human hybridoma IgG (XenoMouse); also called x5.35
100%: all assays above

B5: mAb 5.56.1 (antibody, V domains shown)
VH: QVQLVESGGGVVQPGRSLRLSCAASGFTFSSYGMHWVRQAPGKGLEWVAVIWYDGSNKYYADSVKGRFTISRDNSKNTLYLQMNSLRAEDTAVYYCAREDNWNFYFDYWGQGTLVTVSS
VL: DIQMTQSPSSLSASVGDRVTITCRASQGISYYLAWYQQKPGKVPKLLIYAASTLQSGVPSRFSGSGSGTDFTLTISSLQPEDVATYYCQKYNSAPFTFGPGTKVDIKR
notes: Human hybridoma IgG (XenoMouse); also called x5.56
100%: all assays above
